In US9458427B2, “IFNγR2 compositions and methods of inhibiting neuronal cell death” (Case Western Reserve University, priority 2009, dated 2016):
Ends that are not written are not given here.

B1: IFNγR21-295: mutant encoding amino acids 1-295 of IFNγR2, retaining Jak2-binding domain but not the C-terminal 41 amino acids (protein)
chain: APPDPLSQLPAPQHPKIRLYNAEQVLSWEPVALSNSTRPVVYQVQFKYTDSKWFTADIMSIGVNCTQITATECDFTAASPSAGFPMDFNVTLRLRAELGALHSAWVTMPWFQHYRNVTVGPPENIEVTPGEGSLIIRFSSPFDIADTSTAFFCYYVHYWEKGGIQQVKGPFRSNSISLDNLKPSRVYCLQVQAQLLWNKSNIFRVGHLSNISCYETMADASTELQQVILISVGTFSLLSVLAGACFFLVLKYRGLIKYWFHTPPSIPLQIEEYL
modifications: left off: large carriers

Legend:
Bax [1] = molecular target: T1, Bax (Homo sapiens, UniProt Q07812); experiment: Apoptosis induced by Bax overexpression in HEK293 cells (Hoechst nuclear staining); type: cell-based; design: expressed in transfected cells; host or cells: HEK293; conditions: HEK293 cells co-transfected with pcDNA3-h Bax and pEGFP-C2-IFNγR2 construct, 24 h after transfection
Procedure: (§1) Cells were cultured overnight in DMEM supplemented with 10% FBS. The transfections were performed using […]® (Qiagen, Valencia, Calif.) in accordance with the manufacturer's instructions. Transfection efficiency was analyzed by the expression of the EGFP-tagged proteins.
(§2) Apoptosis was induced by transfecting the cells with pcDNA3-human Bax, or pcDNA3-human Bak, or pcDNA3-human Bim EL, or by treatment with etoposide (10 μM) or staurosporine (100 nM). To determine the induction of apoptosis by different apoptotic stresses, cells were stained with Hoechst 33258 dye, and the numbers of cells with apoptotic nuclei were counted using fluorescence microscopy. Three hundred cells were analyzed in triplicate samples. […] Caspase activity were measured by using a fluorogenic caspase 3 substrate II (Calbiochem), IFNγR2 constructs were cloned in pEGFP-C2 (IFNγR2wild type, IFNγR21-295 and IFNγR2296-337) vector.
(§3) For Bax, Bak or Bim EL overexpression, cells were transfected with either 1 μg pcDNA3-human Bax, 1 μg pcDNA3-human Bak, or 1 μg pcDNA3 human Bim EL, and 4 μg of pEGFP plasmid encoding IFNγR2, and the apoptosis or caspase activity was determined 24 h after the transfection.

human Bim EL = experiment: Apoptosis induced by Bim overexpression in HEK293T cells; type: cell-based; conditions: 24 h after transfection
Procedure: as §1, §2, §3

Bax [2] = molecular target: T1, Bax; experiment: Staurosporine-induced Bax activation in HeLa cells (6A7 antibody immunostaining); type: cell-based; design: endogenous in cells; host or cells: HeLa; conditions: staurosporine 100 nM, 3 h
Procedure: HeLa cells were transiently transfected with pEGFP-C2-IFNγR2 (wild type 1-295, or 296-337) using […]® (Qiagen, Valencia, Calif.) in accordance with the manufacturer's instructions. Four micograms of the plasmid were used to transfect cells cultured in 6-cm diameter dishes. After 24 h of transfection, the cells were treated with staurosporine (100 nM) for 3 h. Then, the cells were washed with phosphate buffer pH 7.4 (PBS), fixed using paraformaldehyde (1%), permeabilized with Triton X-100 (0.02%), blocked with goat serum, and the activation of Bax was analyzed by immunocytochemistry using monoclonal Bax 6A7 antibody (BDPharmingen) and ALEXA FLUOR® 568-labeled anti-mouse IgG secondary antibody (Invitrogen).

[3] = tested on: HT1080 (IFNγR2 null mutant and JAK2 null mutant) cells; experiment: Etoposide-induced apoptosis in HT1080-derived IFNγR2 null and Jak2 null cells (Hoechst nuclear staining); type: cell-based, human; conditions: cells lacking IFNγR2 and Jak2, 10 μM etoposide for 24 h
Procedure: HT1080 (wild type, IFNγR2 null mutant and JAK2 null mutant) cells were cultured in Dulbecco's Modified Eagle's Medium (DMEM) supplemented with 10% fetal bovine serum (FBS). HeLa, Human Embryonic Kidney (HEK) 293 and HEK293T cells were purchased from ATCC, and cultured in DMEM supplemented with 10% FBS. LNCap and PC3 cells were purchased from ATCC and cultured in DMEM F12 medium supplemented with 10% FBS. RWPE1 and RWPE2 were purchased from ATCC and cultured in keratinocytes-SFM plus supplements medium (Gibco). Primary mammary epithelial (4A100) cultures were derived from organoids isolated from discarded mammary tissue acquired from patients undergoing reduction mammoplasty surgery. Anonymized specimens were acquired from patients who had given written consent, through the Tissue Procurement and Histology Core Facility of the Case Comprehensive Cancer Center (Case), under a Case CCC IRB approved protocol. Primary epithelial cultures were grown in M87A+X medium. Human HME1 cells (Clontech) were grown in medium 171 with mammary epithelial growth supplement (Cascade Biologics) and penicillin-streptomycin.42 Human breast cancer cell line MDA-MD468 was cultured in RPMI, 5% FBS, supplemented with L-glutamine, penicillin-streptomycin and fungizone (Gibco). […]
Cells were cultured overnight in DMEM supplemented with 10% FBS. […] Transfection efficiency was analyzed by the expression of the EGFP-tagged proteins.
as §2

T1 sequence (Q07812 whole entry): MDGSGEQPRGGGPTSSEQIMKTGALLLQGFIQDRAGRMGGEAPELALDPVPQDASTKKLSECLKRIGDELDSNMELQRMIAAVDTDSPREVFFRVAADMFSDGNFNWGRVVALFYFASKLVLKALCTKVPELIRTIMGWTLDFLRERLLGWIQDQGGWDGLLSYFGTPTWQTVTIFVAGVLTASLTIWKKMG

| Molecule | Inhibition of apoptosis induced by Bax overexpression (Bax [1]) | Inhibition of apoptosis induced by Bim overexpression (human Bim EL) | Inhibition of STS-induced Bax activation (6A7 Ab-positive cells in GFP-positive cells) (Bax [2]) | Inhibition of etoposide-induced apoptosis [3] |
| --- | --- | --- | --- | --- |
| IFNγR2296-337: mutant encoding amino acids 296-337 of IFNγR2, lacking the Jak2-binding domain; expressed as EGFP fusion (KDPTQPILEALDKDSSPKDDVWDSVSIISFPEKEQEDVLQTL; also: EGFP fusion; listed as Homo sapiens) | able to inhibit apoptosis induced by Bax overexpression | able to inhibit apoptosis induced by Bim overexpression | inhibited STS-induced Bax activation | able to inhibit etoposide-induced apoptosis |
| B1 | could not protect cells from Bax | – | did not inhibit Bax activation | could not |
